For orientation: Kd means the free concentration of one partner at which half of the binding sites on the other are occupied at equilibrium, for simple one-to-one binding.

Three molecules from publication PMC4602035 can be followed below.

The target of experiment [1] is SecYEG in nanodiscs (titration with FtsY(NBD)) (E. coli) (UniProt P0AGA2). In words: other fluorescence titration.
The target of experiment [2] is nontranslating ribosomes (E. coli) (UniProt P0ADZ0). In words: co-sedimentation.
Experiment [3] addresses SecY(S111C)EG labeled with MDCC at position 111 of SecY (E. coli) (UniProt P0AGA2). Kind of experiment: FRET or BRET. For orientation: Bioluminescence resonance energy transfer reports proximity on the nanometre scale.

Consider “FtsY(A26C) labeled with NBD at position 26 (from UniProt P10121 1-497) (receptor)”, for which, in experiment [1], the Kd amounted to 160 nM.

B1: SRP present in the ribosome and RNC preparations (complex)
chain: MFDNLTDRLSRTLRNISGRGRLTEDNVKDTLREVRMALLEADVALPVVREFINRVKEKAVGHEVNKSLTPGQEFVKIVRNELVAAMGEENQTLNLAAQPPAVVLMAGLQGAGKTTSVGKLGKFLREKHKKKVLVVSADVYRPAAIKQLETLAEQVGVDFFPSDVGQKPVDIVNAALKEAKLKFYDVLLVDTAGRLHVDEAMMDEIKQVHASINPVETLFVVDAMTGQDAANTAKAFNEALPLTGVVLTKVDGDARGGAALSIRHITGKPIKFLGVGEKTEALEPFHPDRIASRILGMGDVLSLIEDIESKVDRAQAEKLASKLKKGDGFDLNDFLEQLRQMKNMGGMASLMGKLPGMGQIPDNVKSQMDDKVLVRMEAIINSMTMKERAKPEIIKGSRKRRIAAGCGMQVQDVNRLLKQFDDMQRMMKKMKKGGMAKMMRSMKGMMPPGFPGR
The molecule B1 showed a percent of ribosomes/RNCs with SRP bound in experiment [2] of 25%.

B2: FtsY(F196C) labeled with BODIPY FL at position 196 (receptor)
chain: MAKEKKRGFFSWLGFGQKEQTPEKETEVQNEQPVVEEIVQAQEPVKASEQAVEEQPQAHTEAEAETFAADVVEVTEQVAESEKAQPEAEVVAQPEPVVEETPEPVAIEREELPLPEDVNAEAVSPEEWQAEAETVEIVEAAEEEAAKEEITDEELETALAAEAAEEAVMVVPPAEEEQPVEEIAQEQEKPTKEGFCARLKRSLLKTKENLGSGFISLFRGKKIDDDLFEELEEQLLIADVGVETTRKIITNLTEGASRKQLRDAEALYGLLKEEMGEILAKVDEPLNVEGKAPFVILMVGVNGVGKTTTIGKLARQFEQQGKSVMLAAGDTFRAAAVEQLQVWGQRNNIPVIAQHTGADSASVIFDAIQAAKARNIDVLIADTAGRLQNKSHLMEELKKIVRVMKKLDVEAPHEVMLTIDASTGQNAVSQAKLFHEAVGLTGITLTKLDGTAKGGVIFSVADQFGIPIRYIGVGERIEDLRPFKADDFIEALFARED
modifications: BODIPY FL (Bpy) on cysteine 196
Consider B2, for which the Kd in experiment [3] came to 180 nM.
